Starred links: 1 amine or outer side, 2 acyl side, 3 side chain; linkers in the order of their positions; H or OH if unused. Groups on a side chain read outwards from the residue. No end group written: not given here. *: point of attachment. C18 diacid = O=C(O)CCCCCCCCCCCCCCCCC(=O)*; γGlu = O=C(O)[C@H](CCC(=O)[*:2])N[*:1]; AEEA = NCCOCCOCC(=O)O

Two molecules from patent US12679878B2, “CRF2 receptor agonists and their use in therapy” (SANOFI, priority 2020, dated 2026) can be followed below.

In this test the target is human corticotropin-releasing factor 2α (CRF2 α receptor) (human), Q13324. The experiment in a line: cell-based or functional assay.
Sequence of human corticotropin-releasing factor 2α (CRF2 α receptor) (human), Q13324 (Q13324 20-411): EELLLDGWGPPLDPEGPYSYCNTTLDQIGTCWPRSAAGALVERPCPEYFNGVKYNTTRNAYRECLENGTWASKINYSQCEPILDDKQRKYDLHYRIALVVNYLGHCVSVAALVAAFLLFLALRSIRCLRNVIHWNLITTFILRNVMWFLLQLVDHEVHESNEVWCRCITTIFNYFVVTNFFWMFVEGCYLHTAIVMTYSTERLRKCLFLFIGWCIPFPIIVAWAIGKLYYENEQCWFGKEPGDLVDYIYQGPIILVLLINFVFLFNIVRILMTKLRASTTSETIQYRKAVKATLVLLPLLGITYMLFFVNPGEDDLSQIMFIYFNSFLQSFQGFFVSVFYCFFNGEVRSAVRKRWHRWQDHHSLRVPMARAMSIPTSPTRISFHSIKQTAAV

B1: SEQ ID NO: 41 (peptide)
peptide: IVLSLDVPIKLK([AEEA-AEEA-γGlu-C18 diacid])QILLEQERQRKERQQAEKNVRILERV-NH2
modifications: N-terminus assumed
SMILES: CC[C@H](C)[C@H](N)C(=O)N[C@H](C(=O)N[C@@H](CC(C)C)C(=O)N[C@@H](CO)C(=O)N[C@@H](CC(C)C)C(=O)N[C@@H](CC(=O)O)C(=O)N[C@H](C(=O)N1CCC[C@H]1C(=O)N[C@H](C(=O)N[C@@H](CCCCN)C(=O)N[C@@H](CC(C)C)C(=O)N[C@@H](CCCCNC(=O)COCCOCCNC(=O)COCCOCCNC(=O)CC[C@H](NC(=O)CCCCCCCCCCCCCCCCC(=O)O)C(=O)O)C(=O)N[C@@H](CCC(N)=O)C(=O)N[C@H](C(=O)N[C@@H](CC(C)C)C(=O)N[C@@H](CC(C)C)C(=O)N[C@@H](CCC(=O)O)C(=O)N[C@@H](CCC(N)=O)C(=O)N[C@@H](CCC(=O)O)C(=O)N[C@@H](CCCNC(=N)N)C(=O)N[C@@H](CCC(N)=O)C(=O)N[C@@H](CCCNC(=N)N)C(=O)N[C@@H](CCCCN)C(=O)N[C@@H](CCC(=O)O)C(=O)N[C@@H](CCCNC(=N)N)C(=O)N[C@@H](CCC(N)=O)C(=O)N[C@@H](CCC(N)=O)C(=O)N[C@@H](C)C(=O)N[C@@H](CCC(=O)O)C(=O)N[C@@H](CCCCN)C(=O)N[C@@H](CC(N)=O)C(=O)N[C@H](C(=O)N[C@@H](CCCNC(=N)N)C(=O)N[C@H](C(=O)N[C@@H](CC(C)C)C(=O)N[C@@H](CCC(=O)O)C(=O)N[C@@H](CCCNC(=N)N)C(=O)N[C@H](C(N)=O)C(C)C)[C@@H](C)CC)C(C)C)[C@@H](C)CC)[C@@H](C)CC)C(C)C)C(C)C
In turn, B1 gave an EC50 [nM], 0% HSA of 15.6 nM.

B2: SEQ ID NO: 40 (peptide)
peptide: IVLSLDVPIKLK([AEEA-AEEA-γGlu-C18 diacid])QILLEQERQRKERQQAETNVQILAQV-NH2
modifications: N-terminus assumed
SMILES: CC[C@H](C)[C@H](N)C(=O)N[C@H](C(=O)N[C@@H](CC(C)C)C(=O)N[C@@H](CO)C(=O)N[C@@H](CC(C)C)C(=O)N[C@@H](CC(=O)O)C(=O)N[C@H](C(=O)N1CCC[C@H]1C(=O)N[C@H](C(=O)N[C@@H](CCCCN)C(=O)N[C@@H](CC(C)C)C(=O)N[C@@H](CCCCNC(=O)COCCOCCNC(=O)COCCOCCNC(=O)CC[C@H](NC(=O)CCCCCCCCCCCCCCCCC(=O)O)C(=O)O)C(=O)N[C@@H](CCC(N)=O)C(=O)N[C@H](C(=O)N[C@@H](CC(C)C)C(=O)N[C@@H](CC(C)C)C(=O)N[C@@H](CCC(=O)O)C(=O)N[C@@H](CCC(N)=O)C(=O)N[C@@H](CCC(=O)O)C(=O)N[C@@H](CCCNC(=N)N)C(=O)N[C@@H](CCC(N)=O)C(=O)N[C@@H](CCCNC(=N)N)C(=O)N[C@@H](CCCCN)C(=O)N[C@@H](CCC(=O)O)C(=O)N[C@@H](CCCNC(=N)N)C(=O)N[C@@H](CCC(N)=O)C(=O)N[C@@H](CCC(N)=O)C(=O)N[C@@H](C)C(=O)N[C@@H](CCC(=O)O)C(=O)N[C@H](C(=O)N[C@@H](CC(N)=O)C(=O)N[C@H](C(=O)N[C@@H](CCC(N)=O)C(=O)N[C@H](C(=O)N[C@@H](CC(C)C)C(=O)N[C@@H](C)C(=O)N[C@@H](CCC(N)=O)C(=O)N[C@H](C(N)=O)C(C)C)[C@@H](C)CC)C(C)C)[C@@H](C)O)[C@@H](C)CC)[C@@H](C)CC)C(C)C)C(C)C
Turning to B2, the EC50 [nM], 0% HSA came to 15.4 nM.
